Patent publication US20150258192A1, “COMPOSITIONS AND METHODS FOR PREVENTING OR TREATING CHRONIC LUNG ALLOGRAFT DYSFUNCTION (CLAD) AND IDIOPATHIC PULMONARY FIBROSIS (IPF)” (priority 2014, published 2015)
No end group written: not given here.

Legend:
Test in all cases: Kinase Profiling Assay
Assay type in all cases: biochemical
Conditions in all cases: peptide 100 μM
[1] = target: eEF-2K(h) (Homo sapiens, UniProt O00418)
Experimental: (§1) Every kinase activity measurement was conducted in duplicate.
(§2) Specifically, in these assays, a positively charged substrate is phosphorylated with a radiolabeled phosphate group from an ATP if the kinase is not inhibited by an inhibitor peptide. The positively charged substrate then is attracted to a negatively charged filter membrane, quantified with a scintillation counter, and compared to a 100% activity control.
(§3) In addition to determining the IC50 of the compound, the specificity of MK2 inhibitory peptides was assessed by examining activities of all 266 human kinases available for testing in the Millipore kinase profiling service (Table 1).

[2] = target: PKBβ(h) (Homo sapiens, UniProt P31751)
Sequence of PKBβ(h) (P31751 whole entry): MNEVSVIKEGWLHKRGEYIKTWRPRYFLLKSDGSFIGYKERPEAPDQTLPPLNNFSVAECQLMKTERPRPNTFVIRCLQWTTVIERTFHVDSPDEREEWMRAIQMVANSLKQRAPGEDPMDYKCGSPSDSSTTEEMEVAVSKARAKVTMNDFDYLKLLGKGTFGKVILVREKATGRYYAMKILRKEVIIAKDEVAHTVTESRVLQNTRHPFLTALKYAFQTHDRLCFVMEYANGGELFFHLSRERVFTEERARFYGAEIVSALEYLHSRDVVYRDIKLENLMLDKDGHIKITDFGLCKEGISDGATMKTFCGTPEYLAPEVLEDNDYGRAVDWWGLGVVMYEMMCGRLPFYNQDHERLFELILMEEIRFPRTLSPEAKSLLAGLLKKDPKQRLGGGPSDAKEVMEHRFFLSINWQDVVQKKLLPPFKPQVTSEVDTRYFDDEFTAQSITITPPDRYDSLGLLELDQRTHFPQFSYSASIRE
Experimental: as §1, §2, §3

[3] = target: CDK2/cyclinA(h) (Homo sapiens, UniProt P24941)
Experimental: as §1, §2, §3

[4] = target: T1, HIPK2(h) (Homo sapiens, UniProt Q9H2X6)
T1 construct: purchased Millipore
T1 sequence (Q9H2X6 whole entry): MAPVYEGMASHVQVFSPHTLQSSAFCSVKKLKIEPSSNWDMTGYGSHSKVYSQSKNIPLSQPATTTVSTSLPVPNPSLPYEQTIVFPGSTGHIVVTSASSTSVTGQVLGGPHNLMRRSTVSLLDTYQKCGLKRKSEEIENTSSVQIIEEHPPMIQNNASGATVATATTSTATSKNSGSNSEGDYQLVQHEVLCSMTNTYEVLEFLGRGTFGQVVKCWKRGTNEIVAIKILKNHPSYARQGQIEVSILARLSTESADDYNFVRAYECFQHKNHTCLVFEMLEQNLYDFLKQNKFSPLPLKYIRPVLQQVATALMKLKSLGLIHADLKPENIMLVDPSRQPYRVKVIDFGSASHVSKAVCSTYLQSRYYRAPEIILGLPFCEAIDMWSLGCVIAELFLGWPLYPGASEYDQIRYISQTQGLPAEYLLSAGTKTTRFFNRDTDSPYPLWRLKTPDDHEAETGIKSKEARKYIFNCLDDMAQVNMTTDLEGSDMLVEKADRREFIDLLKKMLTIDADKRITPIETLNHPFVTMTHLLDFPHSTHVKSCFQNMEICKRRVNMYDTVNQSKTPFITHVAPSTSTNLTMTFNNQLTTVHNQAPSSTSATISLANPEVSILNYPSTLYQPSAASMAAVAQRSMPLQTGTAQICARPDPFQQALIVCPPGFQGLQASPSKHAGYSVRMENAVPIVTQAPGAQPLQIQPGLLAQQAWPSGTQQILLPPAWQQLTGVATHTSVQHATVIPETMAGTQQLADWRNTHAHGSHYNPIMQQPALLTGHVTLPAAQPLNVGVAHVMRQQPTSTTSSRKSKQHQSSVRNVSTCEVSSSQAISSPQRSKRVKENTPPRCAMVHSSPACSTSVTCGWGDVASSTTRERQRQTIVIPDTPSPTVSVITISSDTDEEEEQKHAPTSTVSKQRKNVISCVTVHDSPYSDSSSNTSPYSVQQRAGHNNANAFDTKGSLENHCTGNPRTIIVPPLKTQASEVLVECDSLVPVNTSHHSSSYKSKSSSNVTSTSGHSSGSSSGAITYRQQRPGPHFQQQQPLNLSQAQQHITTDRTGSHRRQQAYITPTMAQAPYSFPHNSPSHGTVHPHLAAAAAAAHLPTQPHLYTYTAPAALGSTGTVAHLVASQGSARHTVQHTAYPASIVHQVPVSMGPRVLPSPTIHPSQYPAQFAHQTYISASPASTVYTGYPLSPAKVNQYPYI
Experimental: as §1, §2, §3

[5] = target: EphA5(h) (Homo sapiens, UniProt P54756)
Sequence of EphA5(h) (P54756 25-1037): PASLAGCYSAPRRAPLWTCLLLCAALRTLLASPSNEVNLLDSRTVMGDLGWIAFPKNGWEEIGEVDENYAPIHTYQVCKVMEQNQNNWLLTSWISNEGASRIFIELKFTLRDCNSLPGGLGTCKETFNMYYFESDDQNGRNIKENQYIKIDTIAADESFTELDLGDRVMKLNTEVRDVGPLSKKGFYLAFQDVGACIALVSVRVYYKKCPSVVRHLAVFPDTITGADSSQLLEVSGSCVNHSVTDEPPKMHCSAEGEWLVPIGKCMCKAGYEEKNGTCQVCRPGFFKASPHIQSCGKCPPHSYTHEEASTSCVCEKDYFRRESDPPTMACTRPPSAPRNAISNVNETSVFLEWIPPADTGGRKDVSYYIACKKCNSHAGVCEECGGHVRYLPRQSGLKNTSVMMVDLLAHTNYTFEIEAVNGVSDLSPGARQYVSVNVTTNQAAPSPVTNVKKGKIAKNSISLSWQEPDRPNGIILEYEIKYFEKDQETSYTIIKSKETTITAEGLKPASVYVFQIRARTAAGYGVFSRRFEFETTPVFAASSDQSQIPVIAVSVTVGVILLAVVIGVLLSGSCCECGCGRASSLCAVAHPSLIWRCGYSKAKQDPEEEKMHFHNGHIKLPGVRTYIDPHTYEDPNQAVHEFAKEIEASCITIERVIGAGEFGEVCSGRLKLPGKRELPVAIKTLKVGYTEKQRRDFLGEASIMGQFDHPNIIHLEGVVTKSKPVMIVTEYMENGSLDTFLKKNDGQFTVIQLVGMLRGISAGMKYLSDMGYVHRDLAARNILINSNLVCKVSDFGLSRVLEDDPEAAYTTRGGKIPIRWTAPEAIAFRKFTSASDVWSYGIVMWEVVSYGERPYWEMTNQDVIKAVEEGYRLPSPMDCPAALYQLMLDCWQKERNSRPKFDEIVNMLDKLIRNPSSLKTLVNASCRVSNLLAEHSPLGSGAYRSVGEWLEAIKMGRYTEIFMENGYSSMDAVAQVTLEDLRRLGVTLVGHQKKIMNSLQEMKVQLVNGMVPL
Experimental: as §1, §2, §3

[6] = target: T2, JNK2α2(h) (Homo sapiens, UniProt P45984)
T2 construct: purchased Millipore
Experimental: as §1, §2, §3

[7] = target: T3, PhKγ2(h) (Homo sapiens, UniProt P15735)
T3 sequence (P15735 1-406): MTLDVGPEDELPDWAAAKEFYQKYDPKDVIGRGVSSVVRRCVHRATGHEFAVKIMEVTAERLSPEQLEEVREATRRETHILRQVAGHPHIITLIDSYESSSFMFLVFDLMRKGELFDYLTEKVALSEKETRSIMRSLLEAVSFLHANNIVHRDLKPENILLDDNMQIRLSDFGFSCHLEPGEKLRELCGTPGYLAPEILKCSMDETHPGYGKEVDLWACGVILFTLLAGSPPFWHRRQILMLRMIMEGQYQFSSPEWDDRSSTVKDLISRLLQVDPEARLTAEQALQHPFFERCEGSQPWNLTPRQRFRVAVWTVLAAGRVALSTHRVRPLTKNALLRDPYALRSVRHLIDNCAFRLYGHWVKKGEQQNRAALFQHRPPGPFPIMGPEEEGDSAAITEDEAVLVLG
Experimental: as §1, §2, §3

[8] = target: CDK3/cyclinE(h) (Homo sapiens, UniProt Q00526)
Experimental: as §1, §2, §3

[9] = target: FGFR1(V561M)(h) (Homo sapiens, UniProt P11362, V561M)
Sequence of FGFR1(V561M)(h) (P11362 22-822 V561M): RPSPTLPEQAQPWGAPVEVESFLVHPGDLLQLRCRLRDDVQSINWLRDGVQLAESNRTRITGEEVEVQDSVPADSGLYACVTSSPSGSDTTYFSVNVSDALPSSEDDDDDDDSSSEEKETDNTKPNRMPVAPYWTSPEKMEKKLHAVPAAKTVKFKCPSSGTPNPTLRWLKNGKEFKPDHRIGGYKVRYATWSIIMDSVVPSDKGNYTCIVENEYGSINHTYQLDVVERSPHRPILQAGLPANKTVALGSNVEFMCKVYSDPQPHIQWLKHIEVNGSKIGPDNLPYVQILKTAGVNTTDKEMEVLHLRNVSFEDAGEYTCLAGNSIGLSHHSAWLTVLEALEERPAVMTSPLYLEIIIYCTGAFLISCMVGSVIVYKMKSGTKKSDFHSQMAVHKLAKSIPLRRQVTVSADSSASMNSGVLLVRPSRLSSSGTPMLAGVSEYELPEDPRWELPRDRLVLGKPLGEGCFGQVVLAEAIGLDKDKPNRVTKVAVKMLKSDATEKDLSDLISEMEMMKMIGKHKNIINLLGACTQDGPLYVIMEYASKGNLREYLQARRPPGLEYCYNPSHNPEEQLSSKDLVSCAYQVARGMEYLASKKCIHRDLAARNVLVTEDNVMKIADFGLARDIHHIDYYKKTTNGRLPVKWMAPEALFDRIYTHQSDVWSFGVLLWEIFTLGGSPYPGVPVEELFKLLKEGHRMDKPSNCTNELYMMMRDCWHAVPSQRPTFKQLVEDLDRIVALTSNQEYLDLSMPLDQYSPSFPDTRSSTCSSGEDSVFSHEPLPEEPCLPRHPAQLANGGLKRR
Experimental: as §1, §2, §3

[10] = target: T4, Tec(h) activated (Homo sapiens, UniProt P42680)
T4 construct: purchased Millipore
T4 sequence (P42680 1-631): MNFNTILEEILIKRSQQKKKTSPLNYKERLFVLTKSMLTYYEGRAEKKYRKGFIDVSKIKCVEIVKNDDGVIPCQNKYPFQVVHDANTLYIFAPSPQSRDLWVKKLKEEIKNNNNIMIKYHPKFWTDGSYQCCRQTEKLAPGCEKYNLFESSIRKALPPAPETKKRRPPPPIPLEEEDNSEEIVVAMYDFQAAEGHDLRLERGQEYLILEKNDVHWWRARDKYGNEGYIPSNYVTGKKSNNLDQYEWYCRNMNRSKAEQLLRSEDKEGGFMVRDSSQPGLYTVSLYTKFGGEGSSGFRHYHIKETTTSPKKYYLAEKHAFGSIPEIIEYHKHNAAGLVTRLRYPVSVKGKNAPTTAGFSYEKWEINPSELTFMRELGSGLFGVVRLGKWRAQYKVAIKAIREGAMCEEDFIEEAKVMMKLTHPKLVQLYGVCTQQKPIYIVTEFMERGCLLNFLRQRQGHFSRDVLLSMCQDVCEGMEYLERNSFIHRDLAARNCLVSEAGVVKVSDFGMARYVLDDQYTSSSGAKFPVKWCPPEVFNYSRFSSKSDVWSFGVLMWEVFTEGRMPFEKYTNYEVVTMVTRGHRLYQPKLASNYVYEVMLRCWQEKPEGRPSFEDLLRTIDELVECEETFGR
Experimental: as §1, §2, §3

[11] = target: Ret(V804L)(h) (Homo sapiens, UniProt P07949, V804L)
Experimental: as §1, §2, §3

[12] = target: Abl(Y253F)(h) (Homo sapiens, UniProt P00519, Y253F)
Experimental: as §1, §2, §3

[13] = target: Plk3(h) (Homo sapiens, UniProt Q9H4B4)
Sequence of Plk3(h) (Q9H4B4 whole entry): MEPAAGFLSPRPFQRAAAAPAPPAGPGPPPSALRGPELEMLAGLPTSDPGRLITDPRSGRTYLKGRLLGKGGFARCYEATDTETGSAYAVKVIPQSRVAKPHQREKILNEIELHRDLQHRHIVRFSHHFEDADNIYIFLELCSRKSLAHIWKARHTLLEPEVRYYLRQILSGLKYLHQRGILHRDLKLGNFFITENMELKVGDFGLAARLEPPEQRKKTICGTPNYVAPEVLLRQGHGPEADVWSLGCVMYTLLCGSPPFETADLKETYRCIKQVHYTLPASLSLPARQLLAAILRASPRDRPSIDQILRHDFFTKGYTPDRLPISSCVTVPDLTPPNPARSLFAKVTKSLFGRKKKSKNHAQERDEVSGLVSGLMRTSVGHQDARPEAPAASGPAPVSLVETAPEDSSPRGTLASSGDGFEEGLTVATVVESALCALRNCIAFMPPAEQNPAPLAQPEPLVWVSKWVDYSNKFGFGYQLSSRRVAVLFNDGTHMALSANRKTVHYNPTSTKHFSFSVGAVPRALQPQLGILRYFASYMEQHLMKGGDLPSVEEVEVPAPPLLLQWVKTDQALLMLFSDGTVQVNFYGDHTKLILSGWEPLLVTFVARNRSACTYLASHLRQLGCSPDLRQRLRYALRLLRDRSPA
Experimental: as §1, §2, §3

[14] = target: CSK(h) (Homo sapiens, UniProt P41240)
Sequence of CSK(h) (P41240 whole entry): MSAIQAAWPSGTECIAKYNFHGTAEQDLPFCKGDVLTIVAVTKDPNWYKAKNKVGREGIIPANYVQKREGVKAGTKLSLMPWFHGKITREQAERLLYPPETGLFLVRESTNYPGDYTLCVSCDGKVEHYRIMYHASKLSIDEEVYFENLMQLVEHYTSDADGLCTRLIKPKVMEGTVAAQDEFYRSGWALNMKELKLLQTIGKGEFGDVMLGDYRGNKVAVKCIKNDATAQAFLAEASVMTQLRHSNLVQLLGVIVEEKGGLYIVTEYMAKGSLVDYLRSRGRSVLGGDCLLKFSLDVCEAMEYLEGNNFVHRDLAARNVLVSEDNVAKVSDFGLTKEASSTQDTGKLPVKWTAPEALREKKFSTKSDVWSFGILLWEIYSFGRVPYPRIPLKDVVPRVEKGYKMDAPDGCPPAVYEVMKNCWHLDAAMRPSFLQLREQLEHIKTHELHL
Experimental: as §1, §2, §3

[15] = target: T5, NLK(h) (Homo sapiens, UniProt Q9UBE8)
T5 construct: purchased Millipore
T5 sequence (Q9UBE8 1-527): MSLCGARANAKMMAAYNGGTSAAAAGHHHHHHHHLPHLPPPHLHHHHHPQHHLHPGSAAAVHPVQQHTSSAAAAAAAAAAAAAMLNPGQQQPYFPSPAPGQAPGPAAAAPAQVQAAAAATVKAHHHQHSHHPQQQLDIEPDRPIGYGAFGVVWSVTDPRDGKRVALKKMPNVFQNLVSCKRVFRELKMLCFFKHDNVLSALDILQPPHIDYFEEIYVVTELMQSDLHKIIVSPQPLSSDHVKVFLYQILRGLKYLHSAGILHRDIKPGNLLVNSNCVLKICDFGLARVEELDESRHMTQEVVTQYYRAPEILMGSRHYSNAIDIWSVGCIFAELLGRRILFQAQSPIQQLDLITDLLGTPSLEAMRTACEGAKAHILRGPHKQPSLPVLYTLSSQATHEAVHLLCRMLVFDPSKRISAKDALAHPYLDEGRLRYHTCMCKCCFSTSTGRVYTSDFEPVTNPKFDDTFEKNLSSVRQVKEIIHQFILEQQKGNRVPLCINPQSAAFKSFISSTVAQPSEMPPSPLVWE
Experimental: as §1, §2, §3

[16] = target: T6, MLK1(h) (Homo sapiens, UniProt P80192)
T6 construct: purchased Millipore
Experimental: as §1, §2, §3

| Sequence | % activity [1] [%] | % activity [2] [%] | % activity [3] [%] | % activity [4] [%] | % activity [5] [%] | % activity [6] [%] | % activity [7] [%] | % activity [8] [%] | % activity [9] [%] | % activity [10] [%] | % activity [11] [%] | % activity [12] [%] | % activity [13] [%] | % activity [14] [%] | % activity [15] [%] | % activity [16] [%] |
| --- | --- | --- | --- | --- | --- | --- | --- | --- | --- | --- | --- | --- | --- | --- | --- | --- |
| FAKLAARLYRKALARQLGVAA [MMI-0300] | 91 | 84 | 86 | 73 | 18 | 98 | 46 | 94 | 74 | 56 | 79 | 86 | 127 | 49 | 87 | 40 |
| HRRIKAWLKKIKALARQLGVAA (Mammal) [MMI-0500] | 43 | 21 | 87 | 38 | 42 | 81 | 16 | 8 | – | 33 | 20 | 29 | 122 | 2 | 19 | 43 |
| KAFAKLAARLYRKALARQLGVAA [MMI-0400] | 43 | 98 | 92 | 90 | 24 | 96 | 38 | 92 | 74 | 29 | 73 | 78 | 129 | 16 | 90 | 33 |
| YARAAARQARAKALARQLGVAA [MMI-0100] | – | – | – | 98 | 110 | – | – | – | 108 | 100 | – | – | – | – | 100 | 77 |
| YARAAARQARAKALNRQLGVA (Mammal) [MMI-0200] | – | 250 | – | – | 123 | – | 86 | – | 72 | 77 | 100 | – | – | 33 | – | 84 |
